{"source": "paper PMC6627431", "origin": "cited, not measured here", "key": {"[1]": {"target": "KV1.3 (UniProt P22001)", "sequence (P22001 whole entry)": "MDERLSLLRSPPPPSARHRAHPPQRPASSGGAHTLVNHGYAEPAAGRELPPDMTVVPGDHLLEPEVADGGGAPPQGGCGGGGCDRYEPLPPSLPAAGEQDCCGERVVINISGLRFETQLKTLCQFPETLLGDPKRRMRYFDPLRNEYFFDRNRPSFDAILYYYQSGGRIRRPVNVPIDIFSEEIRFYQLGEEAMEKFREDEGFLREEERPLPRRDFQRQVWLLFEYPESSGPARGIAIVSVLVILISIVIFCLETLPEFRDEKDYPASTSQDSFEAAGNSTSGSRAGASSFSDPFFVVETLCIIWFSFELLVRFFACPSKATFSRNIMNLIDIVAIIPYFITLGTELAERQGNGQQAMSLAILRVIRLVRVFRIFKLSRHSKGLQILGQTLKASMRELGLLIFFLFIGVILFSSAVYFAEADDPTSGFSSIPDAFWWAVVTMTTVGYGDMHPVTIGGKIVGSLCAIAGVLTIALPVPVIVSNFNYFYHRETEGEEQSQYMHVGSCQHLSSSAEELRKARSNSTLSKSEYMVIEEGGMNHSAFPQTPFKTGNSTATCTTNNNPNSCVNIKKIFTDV"}, "[2]": {"target": "KV1.2 (UniProt P16389)", "sequence (P16389 whole entry)": "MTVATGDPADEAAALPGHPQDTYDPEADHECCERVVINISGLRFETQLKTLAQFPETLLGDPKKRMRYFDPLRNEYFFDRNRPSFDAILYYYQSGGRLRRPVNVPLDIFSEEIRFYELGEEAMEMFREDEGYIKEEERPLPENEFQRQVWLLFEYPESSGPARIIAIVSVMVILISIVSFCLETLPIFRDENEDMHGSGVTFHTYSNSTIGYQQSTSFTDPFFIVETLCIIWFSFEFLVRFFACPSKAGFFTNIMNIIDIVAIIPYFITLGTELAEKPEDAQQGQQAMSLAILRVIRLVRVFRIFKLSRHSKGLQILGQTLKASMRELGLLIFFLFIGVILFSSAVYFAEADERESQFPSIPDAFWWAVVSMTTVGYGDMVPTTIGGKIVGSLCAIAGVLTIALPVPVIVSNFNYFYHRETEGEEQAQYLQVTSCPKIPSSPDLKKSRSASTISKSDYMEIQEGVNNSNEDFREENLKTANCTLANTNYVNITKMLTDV"}, "[3]": {"target": "KV1.1 (UniProt Q09470)", "sequence (Q09470 whole entry)": "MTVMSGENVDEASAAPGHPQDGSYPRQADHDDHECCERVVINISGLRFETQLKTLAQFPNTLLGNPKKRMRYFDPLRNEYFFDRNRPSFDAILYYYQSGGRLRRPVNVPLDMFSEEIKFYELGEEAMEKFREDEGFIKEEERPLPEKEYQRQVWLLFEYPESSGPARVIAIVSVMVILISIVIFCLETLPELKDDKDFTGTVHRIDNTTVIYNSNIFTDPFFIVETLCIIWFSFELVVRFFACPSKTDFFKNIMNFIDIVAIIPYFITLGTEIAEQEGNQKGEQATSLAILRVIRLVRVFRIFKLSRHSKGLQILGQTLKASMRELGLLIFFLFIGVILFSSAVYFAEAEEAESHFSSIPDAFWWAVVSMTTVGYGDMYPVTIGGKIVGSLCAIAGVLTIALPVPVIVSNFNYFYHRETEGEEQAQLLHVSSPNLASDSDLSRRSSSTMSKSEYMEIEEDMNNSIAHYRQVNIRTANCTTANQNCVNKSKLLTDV"}}, "data": [{"substance": "BgK (from UniProt P29186)", "values": [{"measurement": "Kd", "setting": "[1]", "value": 10, "unit": "nM"}, {"measurement": "Kd", "setting": "[2]", "value": 15, "unit": "nM"}, {"measurement": "Kd", "setting": "[3]", "value": 6, "unit": "nM"}]}]}
